Laboratory results from paper PMC10117238, “Molecular mechanism underlying the increased risk of colorectal cancer metastasis caused by single nucleotide polymorphisms in LI-cadherin gene” (Scientific Reports, 2023).

Assays:
[1] = target: LI-cadherin EC1-2 (Homo sapiens) (UniProt Q12864); assay: SV-AUC; settings: cited from earlier work
[2] = target: LI-cadherin EC1-4 (Homo sapiens) (UniProt Q12864); assay: SV-AUC; settings: cited from earlier work
[3] = target: T1, LI-cadherin EC1-2K115E (human); assay: AUC; sedimentation velocity (SV-AUC), 20 °C, 42,000 rpm, UV detection; 1-120 µM EC1-4K115E or 1-60 µM EC1-2K115E; buffer A (10 mM HEPES-NaOH pH 7.5, 150 mM NaCl, 3 mM CaCl2); homodimer to monomers; settings: both partners purified
T1 chain: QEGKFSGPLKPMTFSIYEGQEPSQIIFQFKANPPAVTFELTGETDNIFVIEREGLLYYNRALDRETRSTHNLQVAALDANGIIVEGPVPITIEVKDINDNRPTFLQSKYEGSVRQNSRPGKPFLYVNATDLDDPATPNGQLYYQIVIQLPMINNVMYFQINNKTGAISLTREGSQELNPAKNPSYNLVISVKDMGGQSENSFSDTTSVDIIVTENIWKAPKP

[4] = target: the molecule itself; assay: as above

For LI-cadherin EC1-2 (from UniProt Q12864), the Kd [1] is listed as 75 µM.

In the case of LI-cadherin EC1-4 (from UniProt Q12864), the Kd [2] is given as 39.8 µM.

B1: LI-cadherin EC1-2K115E (domain or fragment)
chain: T1 chain
modifications: N-glycosylated (Expi293F expression, N-glycans on EC2); Ca2+-bound (3 mM CaCl2). Limits by convention: mature N-terminus Gln23 (as in 7CYM) to end of UniProt Cadherin 2 domain (244). C-terminal …
For B1, the Kd [3] was 343 µM and the “stoichiometry N” value [3] was 2.

B2: LI-cadherin EC1-4K115E (domain or fragment, human)
chain: QEGKFSGPLKPMTFSIYEGQEPSQIIFQFKANPPAVTFELTGETDNIFVIEREGLLYYNRALDRETRSTHNLQVAALDANGIIVEGPVPITIEVKDINDNRPTFLQSKYEGSVRQNSRPGKPFLYVNATDLDDPATPNGQLYYQIVIQLPMINNVMYFQINNKTGAISLTREGSQELNPAKNPSYNLVISVKDMGGQSENSFSDTTSVDIIVTENIWKAPKPVEMVENSTDPHPIKITQVRWNDPGAQYSLVDKEKLPRFPFSIDQEGDIYVTQPLDREEKDAYVFYAVAKDEYGKPLSYPLEIHVKVKDINDNPPTCPSPVTVFEVQENERLGNSIGTLTAHDRDEENTANSFLNYRIVEQTPKLPMDGLFLIQTYAGMLQLAKQSLKKQDTPQYNLTIEVSDKDFKTLCFVQINVID
notes: Liver Intestine-cadherin (LI-cadherin, CDH17), human; the first four N-terminal extracellular cadherin repeats EC1-4, with the SNP change Lys115 to Glu (c.343A>G); Made in mammalian cells, N-glycosylated; K115E is a SNP variant found in patients, made here by site-directed mutagenesis; also called K115E of EC1-4; source: Expi293F, transfected (pcDNA3.4), purified from the supernatant (Ni-NTA, SEC)
For B2, the Kd [4] was 51.6 µM and the “stoichiometry N” value [4] was 2.
